Positions count from the first letter of the chain named. Numbers in names are those of the source. Where “and” joins values, the source holds several entries; their conditions need not be identical. Equal values may be shown once. Blank lines part the entries; values can stand above or below the molecule they belong to.
Legend:
mGluR2 = mGluR2 (Rattus norvegicus, UniProt P31421); test: Inter-LBD FRET (N-terminal SNAP-tags), live cells; conditions: SNAP-mGluR2
mGluR2-3xTM4 = mGluR2-3xTM4 (Rattus norvegicus, UniProt P31421, A677S/A681F/A685G); test: Inter-LBD FRET (N-terminal SNAP-tags), live cells; conditions: SNAP-mGluR2-3xTM4
Sequence of mGluR2-3xTM4 (P31421 19-872 A677S/A681F/A685G): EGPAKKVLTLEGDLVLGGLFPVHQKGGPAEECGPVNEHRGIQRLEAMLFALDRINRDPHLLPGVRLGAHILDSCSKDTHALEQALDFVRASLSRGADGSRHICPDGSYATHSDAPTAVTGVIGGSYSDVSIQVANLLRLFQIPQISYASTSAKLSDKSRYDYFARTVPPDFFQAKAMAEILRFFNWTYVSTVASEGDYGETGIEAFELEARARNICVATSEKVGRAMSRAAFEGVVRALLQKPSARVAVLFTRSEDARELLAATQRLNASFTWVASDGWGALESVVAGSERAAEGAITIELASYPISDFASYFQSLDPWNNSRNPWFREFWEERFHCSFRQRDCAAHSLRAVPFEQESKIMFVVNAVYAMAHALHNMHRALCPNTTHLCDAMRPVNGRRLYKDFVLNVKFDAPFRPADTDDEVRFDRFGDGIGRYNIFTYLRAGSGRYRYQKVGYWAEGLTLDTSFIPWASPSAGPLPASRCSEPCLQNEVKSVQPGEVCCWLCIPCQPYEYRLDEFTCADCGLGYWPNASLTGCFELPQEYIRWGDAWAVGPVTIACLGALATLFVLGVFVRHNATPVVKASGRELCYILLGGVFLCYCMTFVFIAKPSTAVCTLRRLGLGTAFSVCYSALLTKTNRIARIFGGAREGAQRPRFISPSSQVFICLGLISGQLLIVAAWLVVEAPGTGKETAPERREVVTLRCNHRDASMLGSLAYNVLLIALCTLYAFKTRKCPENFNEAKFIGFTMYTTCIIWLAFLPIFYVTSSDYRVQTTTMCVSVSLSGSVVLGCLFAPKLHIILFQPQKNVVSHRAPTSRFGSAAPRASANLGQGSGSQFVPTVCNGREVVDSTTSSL

mGluR3 = mGluR3 (Rattus norvegicus, UniProt P31422); test: Inter-LBD FRET (N-terminal SNAP-tags), live cells; conditions: SNAP-mGluR3
[1] = tested on: SNAP-tagged mGluR2 and mGluR3 constructs; test: Surface expression measurements; type: cell-based, rat; conditions: construct; single measurements
Source text: ImageJ was used to analyze fluorescence intensity of cell clusters. […] Fluorescence intensity values for each construct were normalized to wild-type values for comparison.

B3: SNAP-mGluR3 (protein)
chain: LGDHNFMRREIKIEGDLVLGGLFPINEKGTGTEECGRINEDRGIQRLEAMLFAIDEINKDNYLLPGVKLGVHILDTCSRDTYALEQSLEFVRASLTKVDEAEYMCPDGSYAIQENIPLLIAGVIGGSYSSVSIQVANLLRLFQIPQISYASTSAKLSDKSRYDYFARTVPPDFYQAKAMAEILRFFNWTYVSTVASEGDYGETGIEAFEQEARLRNICIATAEKVGRSNIRKSYDSVIRELLQKPNARVVVLFMRSDDSRELIAAANRVNASFTWVASDGWGAQESIVKGSEHVAYGAITLELASHPVRQFDRYFQSLNPYNNHRNPWFRDFWEQKFQCSLQNKRNHRQVCDKHLAIDSSNYEQESKIMFVVNAVYAMAHALHKMQRTLCPNTTKLCDAMKILDGKKLYKEYLLKINFTAPFNPNKGADSIVKFDTFGDGMGRYNVFNLQQTGGKYSYLKVGHWAETLSLDVDSIHWSRNSVPTSQCSDPCAPNEMKNMQPGDVCCWICIPCEPYEYLVDEFTCMDCGPGQWPTADLSGCYNLPEDYIKWEDAWAIGPVTIACLGFLCTCIVITVFIKHNNTPLVKASGRELCYILLFGVSLSYCMTFFFIAKPSPVICALRRLGLGTSFAICYSALLTKTNCIARIFDGVKNGAQRPKFISPSSQVFICLGLILVQIVMVSVWLILETPGTRRYTLPEKRETVILKCNVKDSSMLISLTYDVVLVILCTVYAFKTRKCPENFNEAKFIGFTMYTTCIIWLAFLPIFYVTSSDYRVQTTTMCISVSLSGFVVLGCLFAPKVHIVLFQPQKNVVTHRLHLNRFSVSGTATTYSQSSASTYVPTVCNGREVLDSTTSSL
modifications: SNAP tag labelled with BG-LD555 (BG-LD655 in two-colour SiMPull); left off: HA, N-terminal, kept | SNAP, N-terminal, kept
Basal LBD FRET (%) (mGluR3): 20% and 30% and 23% and 24%

B4: SNAP-mGluR3-C127A-I788A (protein)
chain: B3 chain with C105A, I766A
modifications: SNAP tag labelled with BG-LD555; left off: HA, N-terminal, kept | SNAP, N-terminal, kept
Surface Expression [1]: 1.29 and 0.91 and 1.30 and 0.67 and 0.74 and 0.86 and 1.22 and 0.70

B5: SNAP-mGluR3-I788A (protein, UniProt Q14832 23-879, looked up, variant I788A)
Metabotropic glutamate …: LGDHNFLRREIKIEGDLVLGGLFPINEKGTGTEECGRINEDRGIQRLEAMLFAIDEINKDDYLLPGVKLGVHILDTCSRDTYALEQSLEFVRASLTKVDEAEYMCPDGSYAIQENIPLLIAGVIGGSYSSVSIQVANLLRLFQIPQISYASTSAKLSDKSRYDYFARTVPPDFYQAKAMAEILRFFNWTYVSTVASEGDYGETGIEAFEQEARLRNICIATAEKVGRSNIRKSYDSVIRELLQKPNARVVVLFMRSDDSRELIAAASRANASFTWVASDGWGAQESIIKGSEHVAYGAITLELASQPVRQFDRYFQSLNPYNNHRNPWFRDFWEQKFQCSLQNKRNHRRVCDKHLAIDSSNYEQESKIMFVVNAVYAMAHALHKMQRTLCPNTTKLCDAMKILDGKKLYKDYLLKINFTAPFNPNKDADSIVKFDTFGDGMGRYNVFNFQNVGGKYSYLKVGHWAETLSLDVNSIHWSRNSVPTSQCSDPCAPNEMKNMQPGDVCCWICIPCEPYEYLADEFTCMDCGSGQWPTADLTGCYDLPEDYIRWEDAWAIGPVTIACLGFMCTCMVVTVFIKHNNTPLVKASGRELCYILLFGVGLSYCMTFFFIAKPSPVICALRRLGLGSSFAICYSALLTKTNCIARIFDGVKNGAQRPKFISPSSQVFICLGLILVQIVMVSVWLILEAPGTRRYTLAEKRETVILKCNVKDSSMLISLTYDVILVILCTVYAFKTRKCPENFNEAKFIGFTMYTTCIIWLAFLPAFYVTSSDYRVQTTTMCISVSLSGFVVLGCLFAPKVHIILFQPQKNVVTHRLHLNRFSVSGTGTTYSQSSASTYVPTVCNGREVLDSTTSSL
modifications: N-terminal SNAP tag
Surface Expression [1]: 1.08 and 0.88 and 0.76 and 0.68 and 0.70 and 0.97 and 0.75

Further lines, results first:

Basal LBD FRET (%) (mGluR2): 0%
B1: SNAP-mGluR2 (protein)
chain: EGPAKKVLTLEGDLVLGGLFPVHQKGGPAEECGPVNEHRGIQRLEAMLFALDRINRDPHLLPGVRLGAHILDSCSKDTHALEQALDFVRASLSRGADGSRHICPDGSYATHSDAPTAVTGVIGGSYSDVSIQVANLLRLFQIPQISYASTSAKLSDKSRYDYFARTVPPDFFQAKAMAEILRFFNWTYVSTVASEGDYGETGIEAFELEARARNICVATSEKVGRAMSRAAFEGVVRALLQKPSARVAVLFTRSEDARELLAATQRLNASFTWVASDGWGALESVVAGSERAAEGAITIELASYPISDFASYFQSLDPWNNSRNPWFREFWEERFHCSFRQRDCAAHSLRAVPFEQESKIMFVVNAVYAMAHALHNMHRALCPNTTHLCDAMRPVNGRRLYKDFVLNVKFDAPFRPADTDDEVRFDRFGDGIGRYNIFTYLRAGSGRYRYQKVGYWAEGLTLDTSFIPWASPSAGPLPASRCSEPCLQNEVKSVQPGEVCCWLCIPCQPYEYRLDEFTCADCGLGYWPNASLTGCFELPQEYIRWGDAWAVGPVTIACLGALATLFVLGVFVRHNATPVVKASGRELCYILLGGVFLCYCMTFVFIAKPSTAVCTLRRLGLGTAFSVCYSALLTKTNRIARIFGGAREGAQRPRFISPASQVAICLALISGQLLIVAAWLVVEAPGTGKETAPERREVVTLRCNHRDASMLGSLAYNVLLIALCTLYAFKTRKCPENFNEAKFIGFTMYTTCIIWLAFLPIFYVTSSDYRVQTTTMCVSVSLSGSVVLGCLFAPKLHIILFQPQKNVVSHRAPTSRFGSAAPRASANLGQGSGSQFVPTVCNGREVVDSTTSSL
modifications: SNAP tag labelled with BG-LD555 (BG-LD655 in two-colour SiMPull); left off: HA, N-terminal, kept | SNAP, N-terminal, kept

Basal LBD FRET (%) (mGluR2-3xTM4): 0%
B2: SNAP-mGluR2-3xTM4 (protein)
chain: B1 chain with A659S, A663F, A667G
modifications: SNAP tag labelled with BG-LD555; left off: HA, N-terminal, kept | SNAP, N-terminal, kept
